The target in data set [1] is T1, mCherry-PARP1 (Homo sapiens, UniProt P09874 1-1014). Put plainly: condensation, fluorescence microscopy; 4 µM protein; lost at high salt; reentrant at high DNA; Condensation (DIC, PARP1 truncations): 20 mM Tris pH 7.5, 50 mM NaCl, 7.5 mM MgCl2, 1 mM DTT; DNA curtains: 25-150 mM NaCl tested; temperature not stated. The note with it: protein: recombinant; tags: mCherry (pET-SUMO-mCherry-PARP1); label: Cy5 at 5' of S10 (labelled version, 10% where stated); three annealed oligos, central nick, blunt ends.

Data set [2] has as its target PARP1 (Homo sapiens, UniProt P09874 1-1014). The data set is described as follows: single-molecule oligo capture on lambda DNA; 5 nM PARP1, 20 nM oligo; 98% of oligos dissociate with 500 µM NAD+; Condensation (DIC, PARP1 truncations): 20 mM Tris pH 7.5, 50 mM NaCl, 7.5 mM MgCl2, 1 mM DTT; DNA curtains: 25-150 mM NaCl tested; temperature not stated. To be noted: protein: recombinant; tags: none stated after His-SUMO cleavage; label: 3' ATTO647N on S4; blunt.

The target of data set [3] is T1, mCherry-PARP1. Put plainly: condensation, fluorescence microscopy; 4 µM protein; Condensation (DIC, PARP1 truncations): 20 mM Tris pH 7.5, 50 mM NaCl, 7.5 mM MgCl2, 1 mM DTT; DNA curtains: 25-150 mM NaCl tested; temperature not stated. The note with it: protein: recombinant; tags: mCherry (pET-SUMO-mCherry-PARP1); dumbbell: two hairpins with a single nick.

T1 sequence (P09874 whole entry, the tested form may be a part): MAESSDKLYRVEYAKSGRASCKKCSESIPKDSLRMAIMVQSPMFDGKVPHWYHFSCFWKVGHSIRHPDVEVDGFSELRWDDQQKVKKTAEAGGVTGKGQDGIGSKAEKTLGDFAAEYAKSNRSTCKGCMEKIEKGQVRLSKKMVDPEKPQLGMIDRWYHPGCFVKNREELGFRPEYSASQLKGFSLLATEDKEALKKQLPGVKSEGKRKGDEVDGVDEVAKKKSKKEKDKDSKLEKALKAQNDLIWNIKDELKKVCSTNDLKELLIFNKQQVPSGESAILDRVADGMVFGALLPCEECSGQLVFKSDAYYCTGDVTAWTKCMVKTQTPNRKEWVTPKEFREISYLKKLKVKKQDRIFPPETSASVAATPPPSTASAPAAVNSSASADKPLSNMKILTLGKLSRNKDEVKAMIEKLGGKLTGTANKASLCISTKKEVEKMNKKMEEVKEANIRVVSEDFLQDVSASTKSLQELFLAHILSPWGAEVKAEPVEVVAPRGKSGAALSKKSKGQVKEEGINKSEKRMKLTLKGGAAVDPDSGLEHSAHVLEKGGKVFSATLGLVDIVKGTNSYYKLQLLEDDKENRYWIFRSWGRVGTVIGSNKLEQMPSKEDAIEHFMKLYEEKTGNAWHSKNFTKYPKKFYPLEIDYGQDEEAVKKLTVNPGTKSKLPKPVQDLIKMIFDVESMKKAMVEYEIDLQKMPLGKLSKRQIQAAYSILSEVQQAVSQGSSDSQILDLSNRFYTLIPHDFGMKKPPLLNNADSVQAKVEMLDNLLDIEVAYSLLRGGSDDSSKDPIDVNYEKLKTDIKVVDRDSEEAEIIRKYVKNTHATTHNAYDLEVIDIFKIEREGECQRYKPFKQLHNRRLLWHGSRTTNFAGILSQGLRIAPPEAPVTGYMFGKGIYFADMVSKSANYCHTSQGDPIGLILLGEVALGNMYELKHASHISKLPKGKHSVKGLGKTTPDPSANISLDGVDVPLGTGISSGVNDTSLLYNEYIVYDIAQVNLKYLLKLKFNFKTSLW
PARP1, sequence (P09874 whole entry, the tested form may be a part): as above

B1: triplex DNA (nicked) (dsDNA)
DNA 1: GCTTAGCTTGGAATCGTATCATGTACACTCGTGTGCCGTGTAGACCGTGCC
DNA 2: TGTACATGATACGATTCCAAGCTAAGC
DNA 3: GGCACGGTCTACACGGCACACGAG
modifications: 5'-phosphate on S9
As for B1, in data set [1], the binding result is given as “binds”.

B2: 60 bp DNA-ATTO647N (dsDNA)
DNA 1: ACGAAGTCTTATGGCAAAACCGATGGACTATGTTTCGGGTAGCACCAGAAGTCTATAACA
DNA 2: TGTTATAGACTTCTGGTGCTACCCGAAACATAGTCCATCGGTTTTGCCATAAGACTTCGT
modifications: 5' BioTEG on S3
Take B2: the binding result in data set [2] was “binds”.

As for GCTGGCTTCGTAAGAAGCCAGCTCGCGGTCAGCTTGCTGACCGCG (structured_DNA, 5'-phosphate) [nicked dumbbell DNA], the binding result in data set [3] was “binds”.

For the origin of these results see article PMC11624282, “PARP1 condensates differentially partition DNA repair proteins and enhance DNA ligation”.
